{"source": "the nanobody polyreactivity screen of Harvey et al. (2022)", "data": [{"assay": "yeast display, Sf9 membrane polyspecificity reagent, FACS + sequencing; frameworks hold sequencing errors", "how_it_was_run": "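Sorting gates, low and high (top ~1%), were placed on anti-HA fluorescence to track expression and on streptavidin fluorescence to track reagent binding. A clone's polyreactivity label is taken from the gate it came out of. The reagent was 10% biotinylated, detergent-solubilized Sf9 membrane, applied for 1 hour at 4 °C to galactose-induced yeast display cells.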", "values": [{"sequence": "QVQLVESGGGLVQAGGSLRLSCAASGPIFSDYTMGWYRQAPGKERELVAVISRRGTSTYYADSVKGRFTISRDNAKNTVDLQMNSLKPEDTAVYYCAADDNTYKFYYWGQGTQVTVSS", "polyreactivity (PSR sort gate)": "high polyreactivity"}, {"sequence": "QVQLVESGGGLVQAGGSLRLSCAASGQIFYTNTMGWYRQAPGKERELVAAINSGDRTYYADSVKGRFTISRDNAKNTVYLQMNSLKPEDTAVYYCAARNYATAVRYDYWGQGTQVTVSS", "polyreactivity (PSR sort gate)": "high polyreactivity"}, {"sequence": "QVQLVESGGGLVQAGGSLRLSCAASGQTFPFYTKGWYRQAPGKERELVGAISRRGGSTYYADSVKGRFTISRDNAKYTVYLQMKSLKPEDTAVYYCAADKYSWYDYWGQGTQVTVSS", "polyreactivity (PSR sort gate)": "low polyreactivity"}, {"sequence": "QVQLVESGGGLVQAGGSLRLSCAASGRFFKSYAMGWYRQAPGKERELVAAISRSDDTTYYADSVKGRFTISRDNAKNTVYLQMNSLKPEDTAVYYCAADTWRDGDDYWGQGTQVTVSS", "polyreactivity (PSR sort gate)": "low polyreactivity"}, {"sequence": "QVQLVESGGGLVQAGGSLRLSCAASGRICSQYAMGWYRQAPGKERELVAAISTSGDRTYYADSVKGRFTISRDNAQNSGYLQLNSLKPEDTAVYYCAKDGPYTYGRDIYEYWGQGTQVTVSS", "polyreactivity (PSR sort gate)": "low polyreactivity"}, {"sequence": "QVQLVESGGGLVQAGGSLRLSCAASGRICWYYGLGWYRQAPGKERELVAAITTGGSTYADSVKGRFTISRDNAKNTVYLQMNSLKPEDPAVYYCAADGSYVWRNGWTYFYWGQGTQVTVSS", "polyreactivity (PSR sort gate)": "high polyreactivity"}, {"sequence": "QVQLVESGGGLVQAGGSLRLSCAASGRIDRPYAMGLYRPAPGKERELVAAISRRGGSTYYADSVKGRFTISRDNAKNTVYLQMKSLKPEDTAVYYCAADYWYESLRLQGIQGLDYWGQGTQVTVSS", "polyreactivity (PSR sort gate)": "high polyreactivity"}, {"sequence": "QVQLVESGGGLVQAGGSLRLSCAASGRIFAANAMGWYRQAPGKERELVATISTGGGRTYYADSVKGRFTISRDNAKNTVYLQMNSLKPEDTAVYYCAASRGYLVPTRLAYYYWGQGTQVTVSS", "polyreactivity (PSR sort gate)": "high polyreactivity"}, {"sequence": "QVQLVESGGGLVQAGGSLRLSCAASGRIFADNAMGWYRQAPGKERELVADITYSGGSTYYADSVKGRFTISRDNAKNTVYLQMNSLKPEDTAVYSCAKQGVDYWGQGTQVTVSS", "polyreactivity (PSR sort gate)": "low polyreactivity"}, {"sequence": "QVQLVESGGGLVQAGGSLRLSCAASGRIFADYAMGWYRQAPGKERELVADIRQSGGRTYYADSVKGRFTISRDNAKNTVYFQINRLKPEDTAVYYCATDYGSWGDYSGKYDYWGQGTQVTVSS", "polyreactivity (PSR sort gate)": "low polyreactivity"}, {"sequence": "QVQLVESGGGLVQAGGSLRLSCAASGRIFADYAMGWYRQAPGKERELVADIRQSGGRTYYADSVKGRFTISRDNAKNTVYLQMNSLNPEDTAVYYCATDYGSWGDYSGKYDYWGQGTQVTVSS", "polyreactivity (PSR sort gate)": "low polyreactivity"}, {"sequence": "QVQLVESGGGLVQAGGSLRLSCAASGRIFAFNAMGWYRQAPGTESELVAAINWSGTTTYYADSVKGRFTISRDNAKNTVYLQMNSLKPEDTAVYYCAADVTFRGYAKYYYWGQGTQVTVSS", "polyreactivity (PSR sort gate)": "low polyreactivity"}, {"sequence": "QVQLVESGGGLVQAGGSLRLSCAASGRIFAFYAMGWYRQAPGKERELVAAISWSGGSTYYADSVKGRFTISRDNAKNTVYLQMNSLKPEDTAVYYCAAYRTRGSAYPYDYWGQGTQVTVSS", "polyreactivity (PSR sort gate)": "high polyreactivity"}, {"sequence": "QVQLVESGGGLVQAGGSLRLSCAASGRIFAFYTMGWYIQAPGKERELVAAITRRSGSTYYADSVKGRFTISRDNAKNTVYLQMNSLKPEDTAVYYCAVDTYIYTNRRYTKFDYWGQGTQVTVSS", "polyreactivity (PSR sort gate)": "low polyreactivity"}, {"sequence": "QVQLVESGGGLVQAGGSLRLSCAASGRIFAGNAMGWYRQAPGKERELVAVISKGGGRTYYADSVKGRFTFSRDNAKNTVYLQMNSLKPEDTAVYYCAVRTLQRGKHDLGVDYWGQGTHVTVSS", "polyreactivity (PSR sort gate)": "high polyreactivity"}, {"sequence": "QVQLVESGGGLVQAGGSLRLSCAASGRIFAGNTKGWYRQAPGKERELVAAITSSGGSTYYADSVKGRFTISRDNANTTVYLQMNSLKPEDTAVYYPIVYYVKYYYWGQGTQVTVSS", "polyreactivity (PSR sort gate)": "high polyreactivity"}, {"sequence": "QVQLVESGGGLVQAGGSLRLSCAASGRIFAGYALGWYRQAPGKERELVAAITFRSGTTYYADSVKGRFTISRDNAKNTVYLQMHSLKPEDTAVYYCAARWGPYAFTYVRTYDYWGQGTQVTGSS", "polyreactivity (PSR sort gate)": "low polyreactivity"}, {"sequence": "QVQLVESGGGLVQAGGSLRLSCAASGRIFAGYAMGWYRQAPGKERELVAAISKRGGSTYYADSVKGRFTISRDKAKNTVYLQMNSLKPEDTAVYYCAADTGYPNGQGQGYQNFGGYYWGQGTQVTVSS", "polyreactivity (PSR sort gate)": "high polyreactivity"}, {"sequence": "QVQLVESGGGLVQAGGSLRLSCAASGRIFAGYGMGWYRQAPGKERELVAAISSGGSTYYADSVKGRFTISRDNAKNTVYLQMNSLKPEDTAVYYCATDGQSVPDDYYQNVDYDYWGQGTQVTVSS", "polyreactivity (PSR sort gate)": "low polyreactivity"}, {"sequence": "QVQLVESGGGLVQAGGSLRLSCAASGRIFAHYAMGWYRQAPGKEMELFATISLSVGSTYYADSVKGRFTISRDNAKNTVYLQMNSLKPEDTSVYYCNATGYYATSHITYDYWGQVTQVTVSS", "polyreactivity (PSR sort gate)": "low polyreactivity"}, {"sequence": "QVQLVESGGGLVQAGGSLRLSCAASGRIFAKYAMGWYRQAPGTERELVAAISWGGGSTYYADSVKGRFTISRDNAKNTVYLQMNSLKPEDTAVYYCAARIPKQRDVRGSGMNYWGQGTQVTVSS", "polyreactivity (PSR sort gate)": "high polyreactivity"}, {"sequence": "QVQLVESGGGLVQAGGSLRLSCAASGRIFANNAMGWYRQAPGKERELVAAINWSGSRTYYADSVKGRFTISRDNAKNTVYLQMNSLNPEDTAVYYCAAVGRWGVTGSHHDAYDYWGQGTQVTVSS", "polyreactivity (PSR sort gate)": "high polyreactivity"}, {"sequence": "QVQLVESGGGLVQAGGSLRLSCAASGRIFANYAMGWYRQAPGKERELVAGITTGGSTYYADSVKGRFTISRDNAKNTVYLQMNSLKPVDTAVYYCAVRWRNRLYYYWGQGTQVTVSS", "polyreactivity (PSR sort gate)": "high polyreactivity"}, {"sequence": "QVQLVESGGGLVQAGGSLRLSCAASGRIFAPKAMGWYRQAPGKERELVATITWSGGSTYYADSVKGRFTISRDNAKNSVYLQMNSLNPEDTAVYYCAAETQIRLWSLQYRYYYWGQGTQVTVSS", "polyreactivity (PSR sort gate)": "low polyreactivity"}, {"sequence": "QVQLVESGGGLVQAGGSLRLSCAASGRIFAPYAMGWYRQAPGKERELVAAIDGSGGSTYYADSVKGRFTISRDNAKNTVYLQMNSLKPEDTAVYYCATRGSYRSQRWYGYWGQGTQVTVSS", "polyreactivity (PSR sort gate)": "high polyreactivity"}, {"sequence": "QVQLVESGGGLVQAGGSLRLSCAASGRIFAQYALGWYRQAPGKERELVAGIDRRGGSTYYADSVKGRFTISRDNAKNTVYLQMNSLKPEDTAVYYCNALREDPLFFVYIGGGYWGQGTQVTVSS", "polyreactivity (PSR sort gate)": "low polyreactivity"}, {"sequence": "QVQLVESGGGLVQAGGSLRLSCAASGRIFAQYAMGWYRQAPGKDRELVADISSGVRTYADSVKGRFTISRDNAKNTVYLQMNSLKPEDTAVYYCNAYYIIFTRNDYWGQGTQVNVSS", "polyreactivity (PSR sort gate)": "low polyreactivity"}, {"sequence": "QVQLVESGGGLVQAGGSLRLSCAASGRIFAQYAMGWYRQAPGKEREFVAAITGSTDSTYYADSVKGRFTISRDNAKNTVYLQMNSLKPEDTAVYYCAKDDAYSTIIDYEYSYDYWGQGTQVTVSS", "polyreactivity (PSR sort gate)": "high polyreactivity"}, {"sequence": "QVQLVESGGGLVQAGGSLRLSCAASGRIFARNAMGWYIQAPGKEREFVAAITHSGGNTYYADSVKGRFTISRDNAKKTVYLQMNSLKPEDTAVYYCAKEYRSTKYDYWGQGTQVTVSS", "polyreactivity (PSR sort gate)": "low polyreactivity"}, {"sequence": "QVQLVESGGGLVQAGGSLRLSCAASGRIFARNAMGWYIQAPWKERELVAAISWTGDSTYYADSVKGRFTISRDNAKNTVYLQMNSLKPEDTAVYYCNALVYHTKGDYGYWGQGTQVTVSS", "polyreactivity (PSR sort gate)": "low polyreactivity"}, {"sequence": "QVQLVESGGGLVQAGGSLRLSCAASGRIFARNAMGWYRQAPGKERELVAVITSRGGSTYYADSVKGRFTISRDNAKNTVYLQMNSLKPEDTAVYYCAARYSGEYGYWGQGTQVTVSS", "polyreactivity (PSR sort gate)": "high polyreactivity"}, {"sequence": "QVQLVESGGGLVQAGGSLRLSCAASGRIFARNAMGWYRQAPGKESELVAAINWSGGSTYYADSVKGRFTISRDNAKNTVYLQMNSLKPEDTAVYYCATRSSLFRQYLPWYEYWGQGTQVTVSS", "polyreactivity (PSR sort gate)": "low polyreactivity"}, {"sequence": "QVQLVESGGGLVQAGGSLRLSCAASGRIFASNAMGWYRPAPGKERELVAAIDQGGGSTYYADSVKGRFTISRDNAKNTVYLQMNSLKPEDTAVYYCAADYITAYPRLYNYWGQGTQVTVSS", "polyreactivity (PSR sort gate)": "low polyreactivity"}, {"sequence": "QVQLVESGGGLVQAGGSLRLSCAASGRIFASYAMGWYRQAPGKERELVAAIDRTDSTYYADSVKGRFTISRDNAKNTVYLQMNSLKPEDTAVYYCAADEYYTFSSFELRRMDYWGQGTQVTVSS", "polyreactivity (PSR sort gate)": "low polyreactivity"}, {"sequence": "QVQLVESGGGLVQAGGSLRLSCAASGRIFASYAMGWYRQAPGKERELVAAISKSGGRTYYADSVKGRFTISRDNAKNTVYLQMNSLKPEDTAVYYCAADGYRYYSWTRFSYYSGYDYWGQGTQVTVSS", "polyreactivity (PSR sort gate)": "high polyreactivity"}, {"sequence": "QVQLVESGGGLVQAGGSLRLSCAASGRIFATNAMGWYRQAPGKERELVAAISDGGGSTYYADSVKGRFTISRDNAKNTVYLQMNSLKPEDTAVYYCAARVLDWRGDIHDSEYWGQGTQVTVSS", "polyreactivity (PSR sort gate)": "low polyreactivity"}, {"sequence": "QVQLVESGGGLVQAGGSLRLSCAASGRIFATNAMGWYRQAPGKERELVATITRSAGRTYYADSVKGRFTISRDNEKNTVYLQMNILKPDVTAVYYCAADGYSTAVDDTVRYIVEYEFWGQGTQVTVSS", "polyreactivity (PSR sort gate)": "low polyreactivity"}, {"sequence": "QVQLVESGGGLVQAGGSLRLSCAASGRIFAVNAMGWYRQAHGKERELVASISRRGGTTNYADSVKGRFTISRDNAKNTVYLKMNSLIPEDTAVYYCATRGSAWGRSYNYWGQGTQVTLSS", "polyreactivity (PSR sort gate)": "high polyreactivity"}, {"sequence": "QVQLVESGGGLVQAGGSLRLSCAASGRIFAVYVMGWYRQAPGKERELVAAISQSGGRTYYADSVKGRFTISRDNAKNTVYLQMNSLKPEDTAVYYCNTVTSRATNFSGFGYWGQGTQVTVSS", "polyreactivity (PSR sort gate)": "high polyreactivity"}, {"sequence": "QVQLVESGGGLVQAGGSLRLSCAASGRIFAWYAMGWYRQAPGKERELVAAISDSGGSTYYADSVKGRFTISRDNAKNTVYLQMNSLKPEDTAVYYCAADQVVYSAYWSDHYDYWGQGTQVTVSS", "polyreactivity (PSR sort gate)": "low polyreactivity"}, {"sequence": "QVQLVESGGGLVQAGGSLRLSCAASGRIFAYYAMGRYRQAPGKERELVAAITRSGARTYYADSVKGRFTISRDNAKNTVYLQMNSLKPEDTAVYYCAAEGVRIGTRYDYWGQGTQVTVSS", "polyreactivity (PSR sort gate)": "high polyreactivity"}, {"sequence": "QVQLVESGGGLVQAGGSLRLSCAASGRIFAYYAMGWYRQAPGKERELVAAINSNGGSTYYADSVKGRFTISRDNAKNTVYLQLNSLKPEDTAVYYCAAGARYKMGYWGQGTQVTVSS", "polyreactivity (PSR sort gate)": "high polyreactivity"}, {"sequence": "QVQLVESGGGLVQAGGSLRLSCAASGRIFAYYAMGWYRQAPGKERELVAAISSSGVSTSYADSVKGRFTISRDNAKNTVYLQMNSLKPEDTAVYYCAASPGGRPYFNHDSWGQGTQVTVSS", "polyreactivity (PSR sort gate)": "low polyreactivity"}]}]}
